# Legend:
# [1] = target: wheat proteins (wheat prolamins) (wheat); test: indirect ELISA on coated Wheat, duplicate 1
# [2] = target: barley proteins (barley prolamins) (barley); test: indirect ELISA on coated Barley, duplicate 2
# [3] = target: barley proteins (barley prolamins) (barley); test: indirect ELISA on coated Barley, duplicate 1
# [4] = target: 33-mer gluten specific peptide (wheat); test: indirect ELISA on coated 33-Mer, duplicate 2
# oat proteins (oat) [5] = test: indirect ELISA on coated Oat, duplicate 1
# PWG-gliadin (wheat) = test: SPR, Biacore T200; Glutenin amine-coupled to the chip, antibody as analyte 20-320 nM; 1:1 binding fit; Chi2 1.1 RU2, U-value 5
# [6] = target: rye proteins (rye prolamins) (rye); test: indirect ELISA on coated Rye, duplicate 2
# [7] = target: rye proteins (rye prolamins) (rye); test: indirect ELISA on coated Rye, duplicate 1
# oat proteins (oat) [8] = test: indirect ELISA on coated Oat, duplicate 2
# [9] = target: wheat proteins (wheat prolamins) (wheat); test: indirect ELISA on coated Wheat, duplicate 2
# [10] = target: 33-mer gluten specific peptide (wheat); test: indirect ELISA on coated 33-Mer, duplicate 1
# 33-mer gluten specific peptide (wheat), sequence (peptide, as listed by the source): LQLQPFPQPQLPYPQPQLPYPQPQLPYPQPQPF
substance,measurement,setting,value
R5 monoclonal antibody,ELISA absorbance at 0 ng/ml antibody (blank),[1],0.039
same,ELISA absorbance at 0.8 ng/ml antibody,[1],0.133
same,ELISA absorbance at 4 ng/ml antibody,[1],0.534
same,ELISA absorbance at 20 ng/ml antibody,[1],1.5
same,ELISA absorbance at 0 ng/ml antibody (blank),[2],0.042
same,ELISA absorbance at 0.8 ng/ml antibody,[2],0.171
same,ELISA absorbance at 4 ng/ml antibody,[2],0.659
same,ELISA absorbance at 20 ng/ml antibody,[2],1.61
same,ELISA absorbance at 0 ng/ml antibody (blank),[3],0.041
same,ELISA absorbance at 0.8 ng/ml antibody,[3],0.165
same,ELISA absorbance at 4 ng/ml antibody,[3],0.63
same,ELISA absorbance at 20 ng/ml antibody,[3],1.62
same,ELISA absorbance at 0 ng/ml antibody (blank),[4],0.04
same,ELISA absorbance at 0.8 ng/ml antibody,[4],0.04
same,ELISA absorbance at 4 ng/ml antibody,[4],0.052
same,ELISA absorbance at 20 ng/ml antibody,[4],0.118
same,ELISA absorbance at 0 ng/ml antibody (blank),oat proteins (oat) [5],0.043
same,ELISA absorbance at 0.8 ng/ml antibody,oat proteins (oat) [5],0.041
same,ELISA absorbance at 4 ng/ml antibody,oat proteins (oat) [5],0.042
same,ELISA absorbance at 20 ng/ml antibody,oat proteins (oat) [5],0.043
same,Kd,PWG-gliadin (wheat),203 nM
same,koff,PWG-gliadin (wheat),0.0539 s⁻¹
same,kon,PWG-gliadin (wheat),266000 M⁻¹ s⁻¹
same,ELISA absorbance at 0 ng/ml antibody (blank),[6],0.042
same,ELISA absorbance at 0.8 ng/ml antibody,[6],0.174
same,ELISA absorbance at 4 ng/ml antibody,[6],0.671
same,ELISA absorbance at 20 ng/ml antibody,[6],1.61
same,ELISA absorbance at 0 ng/ml antibody (blank),[7],0.039
same,ELISA absorbance at 0.8 ng/ml antibody,[7],0.165
same,ELISA absorbance at 4 ng/ml antibody,[7],0.651
same,ELISA absorbance at 20 ng/ml antibody,[7],1.56
same,ELISA absorbance at 0 ng/ml antibody (blank),oat proteins (oat) [8],0.044
same,ELISA absorbance at 0.8 ng/ml antibody,oat proteins (oat) [8],0.055
same,ELISA absorbance at 4 ng/ml antibody,oat proteins (oat) [8],0.043
same,ELISA absorbance at 20 ng/ml antibody,oat proteins (oat) [8],0.048
same,ELISA absorbance at 0 ng/ml antibody (blank),[9],0.043
same,ELISA absorbance at 0.8 ng/ml antibody,[9],0.133
same,ELISA absorbance at 4 ng/ml antibody,[9],0.534
same,ELISA absorbance at 20 ng/ml antibody,[9],1.52
same,ELISA absorbance at 0 ng/ml antibody (blank),[10],0.04
same,ELISA absorbance at 0.8 ng/ml antibody,[10],0.039
same,ELISA absorbance at 4 ng/ml antibody,[10],0.048
same,ELISA absorbance at 20 ng/ml antibody,[10],0.067

# Reference: patent US20220135656A1
